Measured values reported in publication PMC3572760 (Advances and Applications in Bioinformatics and Chemistry : …, 2013).

Legend:
[1] = tested on: O=C(O)C1=C[C@@H](OP(=O)(O)O)[C@@H](O)[C@H](O)C1; test: purified protein
[2] = tested on: C=C(OP(=O)(O)O)C(=O)O; test: purified protein
[3] = target: 5-enolpyruvylshikimate-3-phosphate synthase (EPSPS) (Mycobacterium tuberculosis, UniProt P9WPY5); test: biochemical
[4] = target: T1, 5-enolpyruvylshikimate-3-phosphate synthase (EPSPS) (Escherichia coli, UniProt P0A6D3); assay type: biochemical
T1 sequence (P0A6D3 1-427): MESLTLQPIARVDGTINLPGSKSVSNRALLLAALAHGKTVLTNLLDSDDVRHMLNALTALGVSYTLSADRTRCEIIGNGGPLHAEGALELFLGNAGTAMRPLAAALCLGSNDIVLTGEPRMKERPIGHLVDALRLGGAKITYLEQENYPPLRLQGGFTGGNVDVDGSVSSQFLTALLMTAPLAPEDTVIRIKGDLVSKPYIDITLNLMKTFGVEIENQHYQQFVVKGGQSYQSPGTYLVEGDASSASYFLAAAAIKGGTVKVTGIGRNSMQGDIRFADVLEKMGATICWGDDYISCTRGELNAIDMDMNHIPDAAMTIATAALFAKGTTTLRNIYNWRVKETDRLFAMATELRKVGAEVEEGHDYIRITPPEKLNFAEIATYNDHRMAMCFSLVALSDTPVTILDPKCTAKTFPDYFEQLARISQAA

[5] = substrate: C=C(OP(=O)(O)O)C(=O)O; test: steady-state kinetics; assay type: biochemical, Escherichia coli; conditions: PEP/glyphosate-binding pocket

Sequence of 5-enolpyruvylshikimate-3-phosphate synthase (EPSPS) (Mycobacterium tuberculosis, UniProt P9WPY5) (P9WPY5 whole entry): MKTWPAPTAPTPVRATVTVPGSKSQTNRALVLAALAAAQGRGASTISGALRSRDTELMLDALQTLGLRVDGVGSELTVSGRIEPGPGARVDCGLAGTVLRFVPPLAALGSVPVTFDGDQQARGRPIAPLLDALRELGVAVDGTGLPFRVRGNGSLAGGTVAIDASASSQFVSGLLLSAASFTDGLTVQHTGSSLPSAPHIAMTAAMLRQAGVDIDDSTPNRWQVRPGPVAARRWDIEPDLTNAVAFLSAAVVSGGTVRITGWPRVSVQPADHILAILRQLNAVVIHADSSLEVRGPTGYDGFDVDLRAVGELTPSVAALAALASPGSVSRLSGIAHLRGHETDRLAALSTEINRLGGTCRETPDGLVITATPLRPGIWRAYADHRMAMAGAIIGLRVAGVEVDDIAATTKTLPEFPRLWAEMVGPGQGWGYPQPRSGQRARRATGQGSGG

In the case of “5-enolpyruvylshikimate-3-phosphate synthase (EPSPS) (Mycobacterium tuberculosis H37Rv)”, the Km [1] is reported as 16 µM and the Km [2] is reported as 104 µM.

Work on `O=C(O)CNCP(=O)(O)O` [glyphosate, N-phosphonomethyl-glycine] yielded an IC50 [3] of 260 µM and an IC50 [4] of 3 µM.

B1: 5-enolpyruvylshikimate-3-phosphate synthase (EPSPS) (Escherichia coli K-12) (protein)
chain: T1 sequence (P0A6D3 1-427)
B1 was tested, and the Km [5] was 52 µM.
